16 substances from PMC13061415 can be followed below.

In one test the target is Wdr26 (102–641) (mouse) (UniProt Q8C6G8). Put plainly: ITC; competition: RanBP9-Twa1 or RanBP10-Twa1 complex (160 μM) titrated into pre-formed Twa1_52-muskelin or Twa1_52-Wdr26 complex (16 μM); 25°C; competitive binding model with the parameters of the first titration.
The target in another test is muskelin (1–735) (rat) (UniProt Q99PV3). Described as above.
The target of test [1] is muskelin CTLH-CRA domain (205–735 Δ248–625) (UniProt Q99PV3). Put plainly: ITC. The following applies: 160 µM muskelin + 16 µM RanBP10.
Test [2] has the same target. Kind of test: ITC. The following applies: for other: -TΔS / dG / other: ΔH: read off a plot.
For test [3], the target named is RanBP10 CTLH-CRA domain Q519G (mouse). Put plainly: SEC-MALS; RanBP10 Q519G (Q547G) dilution series; molar masses of 0.3 ml peak fractions against concentration, one-site binding fit; dimer to monomers. A general note: In gel filtration, larger molecules generally elute earlier.
The target in test [4] is Maea CTLH-CRA domain (156-279) (mouse) (UniProt Q4VC33). Put plainly: SEC-MALS; purified CTLH-CRA domains alone or mixed (RanBP10 and Twa1 variants with Maea or muskelin), final concentration 250 μM, Superdex 75 10/300 GL.
Maea CTLH-CRA domain (156-279) (mouse), sequence (Q4VC33 156-279): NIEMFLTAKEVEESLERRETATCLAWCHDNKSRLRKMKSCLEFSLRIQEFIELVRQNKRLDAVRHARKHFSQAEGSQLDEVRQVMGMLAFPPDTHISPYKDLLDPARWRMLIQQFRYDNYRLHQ
Test [5] has as its target RanBP10 CTLH-CRA domain (315–608, Δ382–529), wild type (mouse). Put plainly: ITC; muskelin CTLH-CRA (160 μM, syringe) titrated into RanBP10 or Twa1 CTLH-CRA variants (16 μM, cell); 25°C; 20 mM tricine pH 8.0, 500 mM NaCl, 1 mM TCEP; one-site model. A general note: ITC needs no label: the signal is the heat of the interaction.
The target in test [6] is RanBP10 CTLH-CRA domain (315–608, Δ382–529), wild type. Kind of test: ITC. Conditions: 160 µM muskelin + 16 µM RanBP10.
Test [7] shares this target. Kind of test: ITC. The following applies: 160 µM muskelin + 16 µM RanBP10. The source holds these as a separate data set.
In test [8] the target is RanBP10 CTLH-CRA domain (315–608, Δ382–529), wild type (mouse). Kind of test: SEC-MALS; CTLH-CRA domain complexes co-expressed in E. coli and purified as complexes; Superdex 75 10/300 GL; 20 mM tricine pH 8.0, 500 mM NaCl, 1 mM TCEP.
The mark [9] stands for this setting: 160 µM muskelin + 16 µM RanBP10 mutants.
Setting [10] is: 160 µM muskelin + 16 µM RanBP10 mutants, parent: est. 4.1 kcal/mol.
Setting [11] is: 160 µM muskelin + 16 µM RanBP10 mutants, parent: est. -11 kcal/mol.
Where [12] appears, read: 160 µM muskelin + 16 µM RanBP10 mutants, parent: est. -16 kcal/mol.
Where [13] appears, read: 160 µM muskelin + 16 µM Twa1 mutants.

Wdr26 (102–641) (mouse), sequence (Q8C6G8 102-641): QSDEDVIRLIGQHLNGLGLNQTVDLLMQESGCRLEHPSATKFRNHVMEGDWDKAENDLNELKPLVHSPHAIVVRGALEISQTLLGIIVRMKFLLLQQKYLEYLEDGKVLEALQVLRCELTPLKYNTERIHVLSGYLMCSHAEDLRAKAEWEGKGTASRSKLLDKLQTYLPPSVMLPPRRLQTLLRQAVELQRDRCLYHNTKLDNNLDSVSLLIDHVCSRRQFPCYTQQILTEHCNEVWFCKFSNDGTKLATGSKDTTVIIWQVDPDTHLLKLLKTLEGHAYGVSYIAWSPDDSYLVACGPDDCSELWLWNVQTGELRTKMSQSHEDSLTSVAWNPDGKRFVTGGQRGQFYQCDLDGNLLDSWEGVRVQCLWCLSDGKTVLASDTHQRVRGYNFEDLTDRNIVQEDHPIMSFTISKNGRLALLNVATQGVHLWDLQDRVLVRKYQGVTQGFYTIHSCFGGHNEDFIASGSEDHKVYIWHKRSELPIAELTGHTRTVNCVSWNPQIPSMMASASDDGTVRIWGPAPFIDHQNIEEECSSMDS

Consider “RanBP10 (57–648)-Twa1 (1–228) complex (from UniProt Q9D7M1 1-228)”, for which the figures for the dissociation constant Kd with Wdr26 (102–641) (mouse) and in the test with muskelin (1–735) (rat) were 0.0623 nM and 0.07 nM, respectively.

“RanBP10 CTLH-CRA domain (315–608, Δ382–529), wild type F543L”: the Kd in test [1] and in test [2] (setting [9]) was 83.7 nM each time. Besides, the other: molar ratio n in test [2] (setting [9]) came to 0.88. Also, the other: -TΔS in test [2] (setting [10]) is -0.7 kcal/mol. The dG in [2] (setting [11]) is -9.6 kcal/mol. Moreover, in test [2] (setting [12]), the other: ΔH was -8.8 kcal/mol.

For the substance “RanBP10 CTLH-CRA domain (315–608, Δ382–529), wild type F543L; V556F”, in [1], the Kd came out at 338 nM. Also, in test [2] (setting [9]), the equilibrium dissociation constant (Kd) came to 338 nM and the other: molar ratio n amounted to 0.98. Also, in test [2] (setting [10]), the other: -TΔS was -0.5 kcal/mol. Besides, the dG in test [2] (setting [11]) was -8.9 kcal/mol. In test [2] (setting [12]), the other: ΔH was -8.4 kcal/mol.

Consider “RanBP10 CTLH-CRA domain (315–608, Δ382–529), wild type F543L; Y548F”, for which the Kd in test [1] was 390 nM. In test [2] (setting [9]), the dissociation constant Kd is 390 nM and the other: molar ratio n was 0.91. In test [2] (setting [10]), the other: -TΔS was -3.3 kcal/mol. The dG in test [2] (setting [11]) is -8.8 kcal/mol. The other: ΔH in test [2] (setting [12]) is -5.4 kcal/mol.

With “RanBP10 CTLH-CRA domain (315–608, Δ382–529), wild type Q519G”, in test [2] (setting [9]), the Kd came out at 8.49 nM and the other: molar ratio n was determined as 0.93. Besides, the other: -TΔS in [2] (setting [10]) came out at 4.1 kcal/mol. For the same substance, the dG in [2] (setting [11]) is -11 kcal/mol. Besides, the other: ΔH in test [2] (setting [12]) was -15 kcal/mol.

In the case of “RanBP10 CTLH-CRA domain (315–608, Δ382–529), wild type V556F”, the other: molar ratio n in [2] (setting [9]) worked out at 0.8. Besides, in test [2] (setting [10]), the other: -TΔS is 5 kcal/mol. Moreover, the dG in [2] (setting [11]) is -11 kcal/mol. Besides, in [2] (setting [12]), the other: ΔH was -16 kcal/mol.

As to “RanBP10 CTLH-CRA domain (315–608, Δ382–529), wild type Y548F”, in [1], the Kd was 54.8 nM. Moreover, in test [2] (setting [9]), the equilibrium dissociation constant (Kd) came to 54.8 nM and the other: molar ratio n came out at 1.06. Besides, the other: -TΔS in [2] (setting [10]) was 1.9 kcal/mol. Besides, in test [2] (setting [11]), the dG was -10 kcal/mol. The other: ΔH in test [2] (setting [12]) was -12 kcal/mol.

On to “RanBP10 CTLH-CRA domain (315–608, Δ382–529), wild type Y548F; V556F”, for which the dissociation constant Kd in [1] turned out to be 298 nM. In addition, in [2] (setting [9]), the Kd came to 298 nM and the other: molar ratio n worked out at 0.95. The other: -TΔS in test [2] (setting [10]) was -0.6 kcal/mol. Besides, the dG in [2] (setting [11]) is -9 kcal/mol. The other: ΔH in test [2] (setting [12]) is -8.3 kcal/mol.

Turning to “RanBP10 CTLH-CRA domain Q519G (domain or fragment)”, the Kd in test [3] came to 18000 nM. The same substance returned a stoichiometry N in [4] of 1.

Consider “RanBP10 CTLH-CRA domain Q519G, F543L, Y548F, V556F (quadruple mutant) (from UniProt Q6VN19 315-608) (domain or fragment)”, for which the stoichiometry N in [4] turned out to be 1.

For “Twa1 CTLH-CRA domain (58-190), wild type (from UniProt Q9D7M1) A125G; Q126R; T127del; A130Q; L140K; M143L; E144K; L147F; F152Y”, in test [2] (setting [13]), the Kd was 795 nM, the other: molar ratio n is 0.94, the dG is -8.3 kcal/mol and the other: -TΔS was -0.4 kcal/mol. The other: ΔH in [2] (setting [13]) is -7.9 kcal/mol.

“Twa1 CTLH-CRA domain (58-190), wild type (from UniProt Q9D7M1) A125G; Q126R; T127del; Q128E; A130Q; L140K; M143L; E144Q; L147F; A148S; F152Y; F160V”: in [2] (setting [13]), the Kd is 247 nM, the other: molar ratio n was determined as 1.05, the dG is -9 kcal/mol and the other: -TΔS worked out at 4.3 kcal/mol. Moreover, in test [2] (setting [13]), the other: ΔH was -13 kcal/mol.

As for “Twa1 CTLH-CRA domain (58-190), wild type (from UniProt Q9D7M1) A125G; Q126R; T127del; Q128E; A130Q; M143L; E144Q; L147F; A148S; F152Y”, in test [2] (setting [13]), the Kd was determined as 354 nM, the other: molar ratio n stood at 0.95, the dG was -8.8 kcal/mol and the other: -TΔS came out at 3.4 kcal/mol. Besides, the other: ΔH in [2] (setting [13]) was -12 kcal/mol.

Substance “muskelin CTLH-CRA domain (205–735 Δ248–625) (from UniProt Q99PV3 205-735) (domain or fragment)” displayed a Kd in test [5] of 4.33 nM.

Regarding “muskelin CTLH-CRA domain (205–735 Δ248–625) (from UniProt Q99PV3) F686L”, in test [6], the Kd turned out to be 56.7 nM. Moreover, in [7], the equilibrium dissociation constant (Kd) is 56.7 nM and the other: molar ratio n worked out at 1.07. The other: -TΔS in test [7] (parent: est. 4.1 kcal/mol, read off a plot) was -1.6 kcal/mol. The dG in [7] (parent: est. -11 kcal/mol, read off a plot) was -9.9 kcal/mol. Moreover, the other: ΔH in test [7] (parent: est. -16 kcal/mol, read off a plot) was -8.2 kcal/mol.

“muskelin CTLH-CRA domain, C-terminally shortened (205–719, Δ248–624) (from UniProt Q99PV3 205-719) (domain or fragment)” showed a stoichiometry N in test [8] of 1.

In general, Kd refers to the concentration at which binding is half-saturated. In general, stoichiometry N refers to a count of units in the complex or per binding partner.
